Assay [1] deals with T1, Macaca Fascicularis GP130 extracellular domain expressed with a C-terminal myc-myc-hexahistidine tag (Macaca fascicularis, UniProt P40189 23-619 (human entry)).
T1 construct: also called mfGP130-MMH; mfGP130-mmH
T1 chain: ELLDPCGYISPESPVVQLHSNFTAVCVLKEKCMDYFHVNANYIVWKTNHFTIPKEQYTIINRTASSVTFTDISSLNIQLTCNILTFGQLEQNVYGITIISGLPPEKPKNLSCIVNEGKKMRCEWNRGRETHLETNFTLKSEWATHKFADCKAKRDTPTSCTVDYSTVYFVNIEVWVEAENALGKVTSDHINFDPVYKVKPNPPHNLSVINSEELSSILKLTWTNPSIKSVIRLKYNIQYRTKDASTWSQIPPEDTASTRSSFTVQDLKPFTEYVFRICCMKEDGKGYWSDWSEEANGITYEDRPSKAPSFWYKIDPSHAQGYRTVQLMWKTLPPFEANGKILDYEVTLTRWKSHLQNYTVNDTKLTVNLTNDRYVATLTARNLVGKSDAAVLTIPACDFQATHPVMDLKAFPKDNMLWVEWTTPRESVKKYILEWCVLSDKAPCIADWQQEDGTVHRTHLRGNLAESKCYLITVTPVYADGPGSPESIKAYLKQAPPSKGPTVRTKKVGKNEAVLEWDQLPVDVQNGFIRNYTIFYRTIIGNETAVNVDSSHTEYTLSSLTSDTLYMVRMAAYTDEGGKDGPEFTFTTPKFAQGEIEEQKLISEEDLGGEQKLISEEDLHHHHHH
The assay is described as follows: SPR, bsAb captured by anti-hFc, 25C. In outline: (§1)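 Anti-hFc-captured bispecific antibodies received 3-fold serial dilutions of LEPR or GP130 (100 nM–3.7 nM) in HBS-ET, pH 7.4, injected for 4 min with 10 min dissociation at 25 °C or 37 °C. ka and kd came from a 1:1 binding model with mass transport limitation, and KD and t½ were calculated from these rate constants.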

The target of assay [2] is T2, human GP130 extracellular domain expressed with a C-terminal myc-myc-hexahistidine tag (human, UniProt P40189 23-619).
T2 construct: also called hGP130-MMH; hGP130-mmH
The assay is described as follows: SPR, bsAb captured by anti-hFc, 25C. In outline: as §1

Assay [3] deals with T3, extracellular domain of human LEPR, GPI-anchored, on HEK293/hLEPR-GPI cells (human, UniProt P48357 22-839, GPI anchor at the C-terminus ; GPI anchor at the C-terminus, added through the carboxypeptidase M signal peptide. The N-terminal myc-myc tag is not written.).
T3 sequence: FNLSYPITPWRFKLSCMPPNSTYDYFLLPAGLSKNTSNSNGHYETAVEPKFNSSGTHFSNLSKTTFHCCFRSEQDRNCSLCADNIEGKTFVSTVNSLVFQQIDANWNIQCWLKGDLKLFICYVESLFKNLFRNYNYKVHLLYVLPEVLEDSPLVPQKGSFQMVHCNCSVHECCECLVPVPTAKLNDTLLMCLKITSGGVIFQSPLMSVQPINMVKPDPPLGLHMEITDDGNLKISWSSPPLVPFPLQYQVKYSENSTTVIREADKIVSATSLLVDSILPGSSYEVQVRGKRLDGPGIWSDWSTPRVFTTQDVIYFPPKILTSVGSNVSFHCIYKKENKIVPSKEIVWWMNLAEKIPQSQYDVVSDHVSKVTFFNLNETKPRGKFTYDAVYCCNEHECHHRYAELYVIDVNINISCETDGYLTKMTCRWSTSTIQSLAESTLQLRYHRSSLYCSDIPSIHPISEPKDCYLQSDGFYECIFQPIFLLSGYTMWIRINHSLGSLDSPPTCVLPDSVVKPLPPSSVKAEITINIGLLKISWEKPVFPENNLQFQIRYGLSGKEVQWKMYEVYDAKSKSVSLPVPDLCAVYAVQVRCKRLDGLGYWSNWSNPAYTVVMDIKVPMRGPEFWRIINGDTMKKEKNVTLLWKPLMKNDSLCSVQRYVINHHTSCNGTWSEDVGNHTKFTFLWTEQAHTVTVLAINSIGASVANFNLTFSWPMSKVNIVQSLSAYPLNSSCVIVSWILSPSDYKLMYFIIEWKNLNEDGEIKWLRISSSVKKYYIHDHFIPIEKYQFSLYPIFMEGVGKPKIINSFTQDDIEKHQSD
The assay is described as follows: FACS, 200 nM antibody on HEK293/hLEPR-GPI cells, 1 µM Leptin. The protocol: (§2) For the FACS analysis, 0.5×10^6 cells/well of HEK293 parental cells, HEK293/Stat3-luc/gp130-2 X Sort cells, and HEK293/hLEPR-GPI cells, were incubated with 200 nM of the conventional antibodies against either GP130 or LEPR or with LEPRxGP130 bispecific antibodies, along with isotype control antibodies at 4° C. in PBS (without calcium and magnesium) containing 2% FBS.
(§3) Cells were fixed using BD CytoFix™ (Becton Dickinson, #554655) and analyzed on an IQue® (Intellicyt) Flow Cytometer. Unstained and secondary antibody alone controls were also tested for all cell lines. The results were analyzed using ForeCyt® (IntelliCyt) and FlowJo version 10 softwares to determine the geometric means of fluorescence for viable cells.
On the technique in general: In flow cytometry, cells or beads pass a laser one at a time.

The target of assay [4] is T3, extracellular domain of human LEPR, …. Description: FACS, 200 nM antibody on HEK293/hLEPR-GPI cells, no Leptin. How it is done:
as §2, §3

In general, Kd refers to the constant that tells how readily two partners part at equilibrium. Lower therefore signals a tighter complex. As usually defined, the koff is the rate constant with which the complex falls apart. A word on the kon: it is the rate constant with which the complex forms. The t½ is how long it takes for the measured level to halve.

B1: bsAb21236D (bispecific antibody, V domains shown)
VH 1: QVQLQESGPGLVKPSQTLSLTCTVSGGSISSGGDYWSWIRQLPGKGLEWIGYIYYSGSAYYNPSLKSRGTISIDTSKNQFSLKLTSVTAADTAVYFCVKLRFLEWFLGGWFGPWGQGTLVTVSS
VH 2: QVQLVESGGGLVKPGGSLRLSCAASGFTFSDYYMTWIRQTPGKGLDWVSYISSSGTNKYNADSVKGRFTISRDNAKNSLYLQMNSLRAEDTAVYYCVRDPPWGMDVWGQGTTVTVSS
VL: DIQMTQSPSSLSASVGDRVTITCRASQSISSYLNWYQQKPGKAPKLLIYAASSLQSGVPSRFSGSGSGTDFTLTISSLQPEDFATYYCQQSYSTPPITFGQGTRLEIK
notes: LEPR x GP130 bispecific with common light chain; also called H4H21236D; bsAb21236 (LEPR × GP130)
Turning to B1, in assay [1], the “100 nM mfGP130-MMH Bound (RU)” value worked out at 21 RU, the Kd stood at 104 nM, the koff came to 0.00305 s⁻¹ and the on-rate constant (kon) stood at 29400 M⁻¹ s⁻¹. The same molecule yielded a t½ in assay [1] of 3.8 min. In assay [2], the “100 nM hGP130-MMH Bound (RU)” value stood at 12 RU, the dissociation constant (Kd) stood at 140 nM, the koff turned out to be 0.00426 s⁻¹ and the kon turned out to be 30300 M⁻¹ s⁻¹. In assay [2], this molecule yielded a t½ of 2.7 min. Besides, the “Binding Ratio, normalized to unstained sample (FL4-A)” value (from here on “Binding Ratio, normalized”) in assay [3] is 3600 fold. Moreover, in assay [4], the “Binding Ratio, normalized” value was found to be 4420 fold.

B2: bsAb21237D (bispecific antibody, V domains shown)
VH 1: EVQLVESGGGLVQPGGSLRLSCAASGFTFSNYGMTWVRQAPGKGLEWVSAITGGGGSTYYSNSVKGRFTISRDNSKNTVYLRMNSVRAEDTAVYYCAKYKWNFVDDWGQGTTVTVSS
VH 2: QVQLVESGGGLVKPGGSLRLSCAASGFTFSDYYMTWIRQTPGKGLDWVSYISSSGTNKYNADSVKGRFTISRDNAKNSLYLQMNSLRAEDTAVYYCVRDPPWGMDVWGQGTTVTVSS
VL: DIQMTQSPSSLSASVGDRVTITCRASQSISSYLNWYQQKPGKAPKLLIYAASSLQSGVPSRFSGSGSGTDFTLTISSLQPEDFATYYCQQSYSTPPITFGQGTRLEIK
notes: LEPR x GP130 bispecific with common light chain; also called H4H21237D; bsAb21237 (LEPR × GP130)
In the case of B2, in assay [1], the “100 nM mfGP130-MMH Bound (RU)” value is 18 RU, binding was put at a Kd of 53.4 nM, the koff was 0.00213 s⁻¹ and the on-rate (kon) was 39800 M⁻¹ s⁻¹. Further, in assay [1], the t½ came out at 5 min. In assay [2], the “100 nM hGP130-MMH Bound (RU)” value was determined as 17 RU, binding was put at a Kd of 55.2 nM, the koff was found to be 0.00274 s⁻¹ and the kon was found to be 49600 M⁻¹ s⁻¹. For the same molecule, in assay [2], the t½ is 4 min. Besides, the “Binding Ratio, normalized” value in assay [3] was 5930 fold. Moreover, in assay [4], the “Binding Ratio, normalized” value was determined as 6320 fold.

These data come from US20240158497A1 (published 2024).
